Patent US20220048967A1 (published 2022)
Numbered stars: 1 amine (or outer) side, 2 acyl side, 3 side chain; on linkers, the order of the positions; unused ones are H or OH. Square brackets hold non-standard residues; d marks the D form. Side chains are listed from the residue outwards. * marks the point of attachment. C20 diacid = O=C(O)CCCCCCCCCCCCCCCCCCC(=O)*; αMePhe(2-F) = C[C@](N)(Cc1ccccc1F)C(=O)O; γGlu = O=C(O)[C@H](CCC(=O)[*:2])N[*:1]; Desaminotyrosyl = O=C(CCc1ccc(O)cc1)*; αMeF = C[C@](N)(Cc1ccccc1)C(=O)O; AEEA = NCCOCCOCC(=O)O; Aib = CC(C)(N)C(=O)O

T1: human gastric inhibitory peptide receptor (GIPR) (human, UniProt P48546 22-466)
T1 sequence (looked up): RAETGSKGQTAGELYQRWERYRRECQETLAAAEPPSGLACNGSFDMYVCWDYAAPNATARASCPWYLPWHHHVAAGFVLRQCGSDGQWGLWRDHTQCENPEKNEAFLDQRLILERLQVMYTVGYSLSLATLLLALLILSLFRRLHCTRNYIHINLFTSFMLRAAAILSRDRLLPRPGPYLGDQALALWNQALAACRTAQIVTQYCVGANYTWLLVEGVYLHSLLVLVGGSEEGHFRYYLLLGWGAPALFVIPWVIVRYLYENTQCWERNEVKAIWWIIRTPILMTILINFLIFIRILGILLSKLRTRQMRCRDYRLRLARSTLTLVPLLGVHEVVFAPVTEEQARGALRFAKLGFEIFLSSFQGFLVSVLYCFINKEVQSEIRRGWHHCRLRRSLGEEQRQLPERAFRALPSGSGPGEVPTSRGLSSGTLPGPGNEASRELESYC


Experiments:
[1] = target: T1, human gastric inhibitory peptide …; assay: cell-based or functional assay
[2] = target: human GLP-1 receptor (GLP-1R) (human, UniProt P43220 24-463); assay: cell-based or functional assay

| Binder | hGIPR cAMP EC50 ratio [1] | hGIPR cAMP Rel EC50 [1] | hGLP1R cAMP EC50 ratio [2] | hGLP1R cAMP Rel EC50 [2] |
| --- | --- | --- | --- | --- |
| YXEGTXTSDHSILLDKKAQXAFIEYLIEGGPSSGAPPPS (Y-Aib-EGT-αMeF-TSDHSILLDKK((2-[2-(2-Amino-ethoxy)-ethoxy]-acetyl)2-(γ-Glu)-CO-(CH2)18-CO2H)AQ-Aib-AFIEYLIEGGPSSGAPPPS-NH2) [Example 128] | 2.46 | 0.0694 nM | 0.7 | 0.0924 nM |
| YXEGTXTSDLSILLDKKAQXAFIEYLIEGGPSSGAPPPS (Y-Aib-EGT-αMeF-TSDLSILLDKK((2-[2-(2-Amino-ethoxy)-ethoxy]-acetyl)2-(γ-Glu)-CO-(CH2)18-CO2H)AQ-Aib-AFIEYLIEGGPSSGAPPPS-NH2) [Example 129] | 1.88 | 0.106 nM | 0.543 | 0.121 nM |
| YXEGTXTSDESILLDKKAQXAFIEYLIEGGPSSGAPPPS (Y-Aib-EGT-αMeF-TSDESILLDKK((2-[2-(2-Amino-ethoxy)-ethoxy]-acetyl)2-(γ-Glu)-CO-(CH2)18-CO2H)AQ-Aib-AFIEYLIEGGPSSGAPPPS-NH2) [Example 130] | 0.116 | 1.55 nM | 0.182 | 0.368 nM |
| YXEGTXTSDXSILLDKKAQXAFIEYLIEGGPSSGAPPPS (Y-Aib-EGT-αMeF-TSD-αMeF-SILLDKK((2-[2-(2-Amino-ethoxy)-ethoxy]-acetyl)2-(γ-Glu)-CO-(CH2)18-CO2H)AQ-Aib-AFIEYLIEGGPSSGAPPPS-NH2) [Example 131] | 1.03 | 0.183 nM | 0.425 | 0.156 nM |
| YXEGTXTSDXSILLDKKAQXAFIEYLIEGGPSSGAPPPS (Y-Aib-EGT-αMeF-TSD-3Pal-SILLDKK((2-[2-(2-Amino-ethoxy)-ethoxy]-acetyl)2-(γ-Glu)-CO-(CH2)18-CO2H)AQ-Aib-AFIEYLIEGGPSSGAPPPS-NH2) [Example 132] | 2.88 | 0.0657 nM | 0.255 | 0.26 nM |
| [Desaminotyrosyl][Aib]EGT[αMeF]TSDYSI[Aib]LDEK([AEEA-AEEA-γGlu-C20 diacid])AQ[Aib]AFIEYLIEGGPSSGAPPPS-NH2 (SMILES CC[C@H](C)[C@H](NC(=O)[C@H](CC(C)C)NC(=O)[C@H](Cc1ccc(O)cc1)NC(=O)[C@H](CCC(=O)O)NC(=O)[C@@H](NC(=O)[C@H](Cc1ccccc1)NC(=O)[C@H](C)NC(=O)C(C)(C)NC(=O)[C@H](CCC(N)=O)NC(=O)[C@H](C)NC(=O)[C@H](CCCCNC(=O)COCCOCCNC(=O)COCCOCCNC(=O)CC[C@H](NC(=O)CCCCCCCCCCCCCCCCCCC(=O)O)C(=O)O)NC(=O)[C@H](CCC(=O)O)NC(=O)[C@H](CC(=O)O)NC(=O)[C@H](CC(C)C)NC(=O)C(C)(C)NC(=O)[C@@H](NC(=O)[C@H](CO)NC(=O)[C@H](Cc1ccc(O)cc1)NC(=O)[C@H](CC(=O)O)NC(=O)[C@H](CO)NC(=O)[C@@H](NC(=O)[C@](C)(Cc1ccccc1)NC(=O)[C@@H](NC(=O)CNC(=O)[C@H](CCC(=O)O)NC(=O)C(C)(C)NC(=O)CCc1ccc(O)cc1)[C@@H](C)O)[C@@H](C)O)[C@@H](C)CC)[C@@H](C)CC)C(=O)N[C@@H](CCC(=O)O)C(=O)NCC(=O)NCC(=O)N1CCC[C@H]1C(=O)N[C@@H](CO)C(=O)N[C@@H](CO)C(=O)NCC(=O)N[C@@H](C)C(=O)N1CCC[C@H]1C(=O)N1CCC[C@H]1C(=O)N1CCC[C@H]1C(=O)N[C@@H](CO)C(N)=O) [Example 133] | 1.89 | 0.0879 nM | 1.52 | 0.0436 nM |
| [Desaminotyrosyl][Aib]EGT[αMePhe(2-F)]TSDYSIXLDEK([AEEA-AEEA-γGlu-C20 diacid])AQ[Aib]EFIEYLIEGGPSSGAPPPS-NH2 (not fully specified (residue 13); printed as DesTyr-Aib-EGT-αMeF(2F)-TSDYSI-αMeF-LDEK((2-[2-(2-Amino-ethoxy)-ethoxy]-acetyl)2-(γ-Glu)-CO-(CH2)18-CO2H)AQ-Aib-EFIEYLIEGGPSSGAPPPS-NH2) [Example 134] | 1.43 | 0.104 nM | 0.942 | 0.0654 nM |
